The target of assay [1] is T1, hIGF-1R-Fc mutant SD015 (H464E) (human, UniProt P08069 31-933).
T1 construct: not shown: human IgG1 Fc, C-terminal tag
Kind of assay: SPR, Fab over captured mutant. On the procedure:
(§1) Surface plasmon resonance (SPR) experiments were performed on a Biacore 3000 instrument set to 25° C. […] The antibody sensorchip surfaces were prepared by injecting each antibody (diluted 100 μg/mL in 10 mM Acetate, pH 4.0) over EDC/NHS-activated sensorchip surfaces according to the standard protocol of the manufacturer. […] Both hIGF-1R-Fc and mIGF-1R-Fc proteins oligomerize due to the incorporation of two separate homodimeric regions (IGF-1R and IgG1-Fc). […] After, completion of the receptor-Fc loading step, flow rates were elevated to 5 μl/min. […] Dissociation was measured for 7 minutes after the antibody injections were complete. Finally, the flow rate was elevated to 30 μL/min and the chip surfaces were regenerated by 2×10 μL injections of 0.1 M glycine, pH 2.
A general note: In SPR one partner is held on a chip, and binding of the other changes the refractive index at the surface.

Assay [2] deals with T2, hIGF-1R-Fc mutant SD102 (E459A, S460A) (human, UniProt P08069 31-933).
T2 construct: not shown: human IgG1 Fc, C-terminal tag
T2 sequence (P08069 31-933 E489A/S490A): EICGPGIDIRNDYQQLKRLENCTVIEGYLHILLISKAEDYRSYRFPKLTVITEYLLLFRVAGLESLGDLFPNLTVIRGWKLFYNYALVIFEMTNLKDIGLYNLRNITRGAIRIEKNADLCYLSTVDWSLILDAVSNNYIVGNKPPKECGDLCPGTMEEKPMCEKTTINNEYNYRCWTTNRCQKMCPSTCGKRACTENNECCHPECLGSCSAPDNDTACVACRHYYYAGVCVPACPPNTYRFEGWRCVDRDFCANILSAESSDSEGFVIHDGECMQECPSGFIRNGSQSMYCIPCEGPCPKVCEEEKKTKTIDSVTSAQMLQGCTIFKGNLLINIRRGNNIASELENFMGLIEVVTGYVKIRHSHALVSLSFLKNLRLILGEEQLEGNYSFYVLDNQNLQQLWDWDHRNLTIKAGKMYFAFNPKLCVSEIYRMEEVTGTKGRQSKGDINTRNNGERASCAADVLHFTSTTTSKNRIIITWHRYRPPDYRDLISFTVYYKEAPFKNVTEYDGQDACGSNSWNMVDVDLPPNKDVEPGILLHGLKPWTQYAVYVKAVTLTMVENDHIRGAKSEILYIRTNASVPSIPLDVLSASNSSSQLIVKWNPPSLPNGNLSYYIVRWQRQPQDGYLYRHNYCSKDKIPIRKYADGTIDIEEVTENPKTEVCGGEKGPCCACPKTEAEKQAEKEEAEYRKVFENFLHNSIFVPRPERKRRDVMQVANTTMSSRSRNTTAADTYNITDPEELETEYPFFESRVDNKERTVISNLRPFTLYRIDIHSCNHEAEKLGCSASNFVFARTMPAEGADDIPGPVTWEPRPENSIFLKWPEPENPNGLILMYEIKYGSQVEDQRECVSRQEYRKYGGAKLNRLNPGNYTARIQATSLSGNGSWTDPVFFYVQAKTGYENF
Kind of assay: SPR, Fab over captured mutant. The method, then:
as §1

For assay [3], the target named is T3, hIGF-1R-Fc mutant SD103 (D461A, V462T) (human, UniProt P08069 31-933).
T3 construct: not shown: human IgG1 Fc, C-terminal tag
T3 sequence (P08069 31-933 D491A/V492T): as the sequence (P08069 31-933 E489A/S490A) above, with A459E, A460S, D461A, V462T counted along it
Description: SPR, Fab over captured mutant. On the procedure:
as §1

The target of assay [4] is T4, hIGF-1R-Fc mutant SD104 (H464A) (human, UniProt P08069 31-933).
T4 construct: not shown: human IgG1 Fc, C-terminal tag
T4 sequence (P08069 31-933 H494A): as the sequence (P08069 31-933 E489A/S490A) above, with A459E, A460S, H464A counted along it
Kind of assay: SPR, Fab over captured mutant. On the procedure:
as §1

The target in assay [5] is T5, hIGF-1R-Fc mutant SD108 (H480E) (human, UniProt P08069 31-933).
T5 construct: not shown: human IgG1 Fc, C-terminal tag
T5 sequence (P08069 31-933 H510E): as the sequence (P08069 31-933 E489A/S490A) above, with A459E, A460S, H480E counted along it
Description: SPR, Fab over captured mutant. On the procedure:
as §1

Assay [6] has as its target T6, hIGF-1R-Fc mutant SD109 (Y482A, R483W) (human, UniProt P08069 31-933).
T6 construct: not shown: human IgG1 Fc, C-terminal tag
Kind of assay: SPR, Fab over captured mutant. The method, then: as §1

Assay [7] deals with T7, hIGF-1R-Fc mutant SD110 (E533H) (human, UniProt P08069 31-933).
T7 construct: not shown: human IgG1 Fc, C-terminal tag
T7 sequence (P08069 31-933 E563H): as the sequence (P08069 31-933 E489A/S490A) above, with A459E, A460S, E533H counted along it
Description: SPR, Fab over captured mutant. The method, then: as §1

The target of assay [8] is T8, hIGF-1R-Fc mutant SD113 (E570A, I571T) (human, UniProt P08069 31-933).
T8 construct: not shown: human IgG1 Fc, C-terminal tag
T8 sequence (P08069 31-933 E600A/I601T): as the sequence (P08069 31-933 E489A/S490A) above, with A459E, A460S, E570A, I571T counted along it
Description: SPR, Fab over captured mutant. On the procedure:
as §1

The target of assay [9] is T9, hIGF-1R-Fc mutant SD203 (N254A) (human, UniProt P08069 31-933).
T9 construct: not shown: human IgG1 Fc, C-terminal tag
T9 sequence (P08069 31-933 N284A): as the sequence (P08069 31-933 E489A/S490A) above, with N254A, A459E, A460S counted along it
Description: SPR, antibody over captured mutant. On the procedure: as §1

In assay [10] the target is T10, hIGF-1R-Fc mutant SD207 (G265Y) (human, UniProt P08069 31-933).
T10 construct: not shown: human IgG1 Fc, C-terminal tag
T10 sequence (P08069 31-933 G295Y): as the sequence (P08069 31-933 E489A/S490A) above, with G265Y, A459E, A460S counted along it
Description: SPR, antibody over captured mutant. The method, then:
as §1

Two molecules from US20090130105A1 (Biogen, published 2009) can be followed below.

T6 sequence (P08069 31-933 Y512A/R513W): as the sequence (P08069 31-933 E489A/S490A) above, with A459E, A460S, Y482A, R483W counted along it
T1 sequence (P08069 31-933 H494E): as the sequence (P08069 31-933 E489A/S490A) above, with A459E, A460S, H464E counted along it

B1: M14-C03 Fab (Fab, V domains shown)
VH: EVQLLESGGGLVQPGGSLRLSCAASGFTFSKYMMSWVRQAPGKGLEWVSYISPSGGLTWYADSVKGRFTISRDNSKNTLYLQMNSLRAEDTAVYYCARDGARGYGMDVWGQGTTVTVSS
VL: DIQMTQSPATLSLSPGERATLSCRASQSVSSYLAWYQQKPGQAPRLLIYDASNRATGIPARFSGSGSGTDFTLTISSLEPEDFAVYYCQQRSNWPPEVTFGPGTKVDIK
notes: Enzymatically derived Fab
Take B1: the binding result in [1], in assay [2], in assay [3], in assay [4], in assay [5] and in assay [6] was “no binding (tested: up to 30 nM Fab)” each time. Moreover, the binding result in [7] and in assay [8] was “no binding (tested: up to 30 nM Fab)” each time.

B2: P1E2 chimeric antibody (antibody, V domains shown)
VH: QVQLQQPGAELVKPGASVKLSCKASGYTFTSYWMHWVKQRPGQGLEWIGEINPTYGRSNYNEKFKSKATLTVDKSSSTAYMQLSSLTSEDSAVYYCARLVRLRYFDVWGAGTTVTVSS
VL: DIVMTQAAFSNPVTLGTSASISCRSSKSLLHSNGITYLYWYLQKPGQSPQLLIYQMSNLASGVPDRFSSSGSGTDFTLRISRVEAEDVGVYYCAQNLELPYTFGGGTKLEIK
notes: also called DE12 Chimera; P1E2.3B12 variable domains
For B2, the binding result in [9] and in assay [10] was “no binding (tested: up to 30 nM antibody)” throughout.
